Laboratory results published in patent publication US20260049134A1 (UNIVERSITY OF FLORIDA RESEARCH FOUNDATION, published 2026).
Substitutions are numbered along the chain they refer to. Names may count otherwise.

T1: SLAMF7
T1 construct: coated protein in the ELISA; also called SLAMF7-StrepTag
T1 chain: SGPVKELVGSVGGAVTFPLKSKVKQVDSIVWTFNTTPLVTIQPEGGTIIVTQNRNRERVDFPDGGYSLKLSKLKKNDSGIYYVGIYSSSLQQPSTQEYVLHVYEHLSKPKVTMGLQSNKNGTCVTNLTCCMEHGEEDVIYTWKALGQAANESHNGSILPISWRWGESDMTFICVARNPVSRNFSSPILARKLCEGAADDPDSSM

T2: CADM1-His (Acro Biosystems) (human, UniProt Q9BY67 45-374)
T2 construct: Bought; also called CADM1/IGSF4A; not shown: His tag of the bought protein
T2 sequence: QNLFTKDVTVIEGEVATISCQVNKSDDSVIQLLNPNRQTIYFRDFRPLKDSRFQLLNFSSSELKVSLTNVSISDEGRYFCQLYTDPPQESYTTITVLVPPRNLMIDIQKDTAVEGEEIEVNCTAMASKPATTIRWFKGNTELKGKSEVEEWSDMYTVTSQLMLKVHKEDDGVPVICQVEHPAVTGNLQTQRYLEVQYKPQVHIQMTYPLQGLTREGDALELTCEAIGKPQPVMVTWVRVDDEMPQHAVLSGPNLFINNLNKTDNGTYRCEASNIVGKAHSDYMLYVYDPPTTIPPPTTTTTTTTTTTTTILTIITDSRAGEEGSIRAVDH

T3: GARS, endogenous in H929 multiple myeloma cells (human, UniProt P41250 37-739, limits assumed)
T3 construct: Native protein pulled down from H929 lysates; also called Glycyl-tRNA synthetase; GlyRS
T3 sequence: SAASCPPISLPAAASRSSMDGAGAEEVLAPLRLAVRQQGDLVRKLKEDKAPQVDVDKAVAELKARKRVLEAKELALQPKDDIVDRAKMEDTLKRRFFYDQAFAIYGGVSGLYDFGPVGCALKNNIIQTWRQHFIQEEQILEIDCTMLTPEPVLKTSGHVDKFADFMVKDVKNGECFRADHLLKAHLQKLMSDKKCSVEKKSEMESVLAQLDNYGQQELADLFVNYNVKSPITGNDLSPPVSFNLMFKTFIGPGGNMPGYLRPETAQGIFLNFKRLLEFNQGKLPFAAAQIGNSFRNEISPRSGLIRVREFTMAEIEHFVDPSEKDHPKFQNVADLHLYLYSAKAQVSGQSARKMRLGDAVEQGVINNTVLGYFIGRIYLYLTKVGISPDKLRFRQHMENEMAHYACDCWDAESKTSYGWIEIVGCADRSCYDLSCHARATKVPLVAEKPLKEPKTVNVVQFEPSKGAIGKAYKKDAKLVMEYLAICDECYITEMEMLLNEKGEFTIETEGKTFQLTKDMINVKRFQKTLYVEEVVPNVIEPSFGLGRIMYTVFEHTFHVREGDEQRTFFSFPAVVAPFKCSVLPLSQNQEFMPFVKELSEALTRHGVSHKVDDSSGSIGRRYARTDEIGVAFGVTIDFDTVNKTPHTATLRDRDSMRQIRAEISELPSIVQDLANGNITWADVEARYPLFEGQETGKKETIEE

B1: TH9-0022 (antibody, human IgG1, kappa, L234A L235A, V domains shown)
VH: QSLEESGGRLVTPGTPLTLTCTVSGFSLSSYAMNWVRQAPGKGLEWIGIINSYGSTYYASWAKGRFTISKTSTTVDLKITSPTTEDTATYFCARVTYDSYGYGYAPYGMDLWGPGTLVTVSS
VL: LVMTQTPSSTSNAVGGTVTIKCQASQSIGNVLAWYQQKPGQPPKLLIYAASTLASGVPSRVGGSRSGTEYTLTISGVQREDAATYYCLGSDSDSDIAFGGGTELEILR
notes: also called TH9-022; negative control
B2: HW-8 chimeric rabbit-human IgG1 LA/LA/PG (antibody, V domains shown)
VH: QSLEESGGRLVTPGTPLTLTCTVSGFSLSSYAMSWVRQAPGKGLEWIGAISTGGSTTYASWAKGRFTISKTSSTTVDLKMTSLTTEDTATYFCVRHFRLWGPGTLVTISS
VL: QVLTQTPSSVSAAVGGTVTIKCQASQSIGSALAWFQQKPGQRPKLLIYRASNLASGVPSRFKGSGSGTEFALTISGVQREDAATYYCLGGAAAVWAFGAGTNVEIKR
notes: Fc-silenced (L234A/L235A/P329G) IgG1, kappa; Alexa Fluor 647-labeled in single-step flow cytometry; Cluster C-45
B3: HW-42 chimeric rabbit-human IgG1 LA/LA/PG (antibody, V domains shown)
VH: QSVKESEGGLFKPADTLTLTCTVSGFSLSSNEISWVRQAPGEGLEYIGIIDTGGRAYYAVWARSRSTITRNTNLNTVTLKMTSLTAADTATYFCARGGVDTEWYAFSSWGPGTLVTVPS
VL: SFVLTQPASVQVNLGQTVSLTCTADTLSRRYASWYQQKPGQAPVLLIFRDTSRPSGVPDRFSGSSSGDTATLTISGAQAGDEADYYCATSDGSGSNYQYVFGGGTQLTVTG
notes: Fc-silenced (L234A/L235A/P329G) IgG1, lambda; Alexa Fluor 647-labeled in single-step flow cytometry; Cluster C-1
B4: HW-101 chimeric rabbit-human IgG1 LA/LA/PG (antibody, V domains shown)
VH: QEQLVESGGRLVTPGTPLTLTCKASGFSLGKYDMSWVRQAPGKGLEWIGTIYAGSGSTWYASWAKGRFTISKTSTTVDLKMTSLTTEDTATYFCARDFLGVNSIWGPGTLVTISS
VL: B3 VL with R30S, G40D, F48H, S65N, D68N, Y97F, Q98H, Y99F
notes: Fc-silenced (L234A/L235A/P329G) IgG1, lambda; Alexa Fluor 647-labeled in single-step flow cytometry; Cluster C-97
B5: HW-28 chimeric rabbit-human IgG1 LA/LA/PG (antibody, V domains shown)
VH: QKQLVESGGRLVTPGTPLTLTCTASGFSLSSNAMSWVRQAPGEGLQWIGTISSGGSTYYASWAKGRFTISKTSTTVTLKMTSLTTEDTATYFCARGADLHRLWGPGTLVTVSS
VL: B3 VL with A24G, D25K, T26P, R30S, Y31F, L46V, F48Y, D68N, N96S
notes: Fc-silenced (L234A/L235A/P329G) IgG1, lambda; Alexa Fluor 647-labeled in single-step flow cytometry; Cluster C-45
B6: HW-1 chimeric rabbit-human IgG1 LA/LA/PG (antibody, V domains shown)
VH: QSLEESGGGLFKPTDTLTLTCTASGFSLGSSYAISWVRQAPGKELEWIGTIDSGRAYYARWAKSRSTITRNTNENTVTLKMTSLTAADTATYFCARDLIPTYSQDIWGPGTLVTISS
VL: B3 VL with F48Y, D68N, S95N, N96S, G111S
notes: Fc-silenced (L234A/L235A/P329G) IgG1, lambda; Alexa Fluor 647-labeled in single-step flow cytometry; Prototype of cluster C-1
B7: HW-97 chimeric rabbit-human IgG1 LA/LA/PG (antibody, V domains shown)
VH: QKQLVESGGRLVTPGTPLTLTCTVTGIDLSSHGMSWVRQAPGKGLEWIGVIYPSGSTWYASWARGRFTISKTSTTVDLKMTSLTTEDTATHFCARGDVGGADNNIWGPGTLVTVSS
VL: B3 VL with N13D, D25E, R30S, F48Y, D68N, N96S
notes: Fc-silenced (L234A/L235A/P329G) IgG1, lambda; Alexa Fluor 647-labeled in single-step flow cytometry; Prototype of cluster C-97
B8: HW-17 chimeric rabbit-human IgG1 LA/LA/PG (antibody, V domains shown)
VH: QSLGESRGRLVTPDETLTLTCTVSGIDLSSNAMSWVRQAPGEGLEWIGTINTGGRAYYASWAKGRFTISRTSTTVDLKMTSLTTEDTATYFCARERYSDGRAYDIWGPGTLVTISS
VL: B3 VL with F48Y, R49T, T51S, S52N, V57I, D68N, S90D, N96I
notes: as for B3
B9: HW-25 chimeric rabbit-human IgG1 LA/LA/PG (antibody, V domains shown)
VH: QSLEESGGRLVTPGTPLTLTCTVSGFSLSSYAMGWVRQAPGKGLEWIGIIDSRGSTYYATWAKGRFTISKTSTTVDLKITSPTTEDTATYFCAREDSYYYDSFNLWGPGTLVTVSS
VL: B3 VL with F48Y, D68N, N96S, Y99C
notes: as for B3
B10: HW-45 chimeric rabbit-human IgG1 LA/LA/PG (antibody, V domains shown)
VH: QKQLVESGGRLVTPGTPLTLTCTVSGFSLSSYAMGWFRQAPGKGLEWIGIINSYGSTYYASWAKGRFTISKTSTTVDLKITSPTTEDTATYFCGRRIGSARFDPWGPGTLVTVSS
VL: B3 VL with R30S, F48Y, S52R, D68N, N96S, Q98R, Y99L
notes: Fc-silenced (L234A/L235A/P329G) IgG1, lambda; Alexa Fluor 647-labeled in single-step flow cytometry; Prototype of cluster C-45
B11: HW-70 chimeric rabbit-human IgG1 LA/LA/PG (antibody, V domains shown)
VH: QSLEESGGRLVTPGTPLTLTCTVSGFSLSSNAMSWVRQAPGKGLEWIGTIDGYGYTYYASWAKGRFTVSKTSTTVDLKITSPTTEDTATYFCAREIYLGSNFWGPGTLVTISS
VL: B3 VL with F48Y, D68N, S90A, N96S, Y99F
notes: as for B3
B12: HW-113 chimeric rabbit-human IgG1 LA/LA/PG (antibody, V domains shown)
VH: QKQLVESGGGLVQPGGSLTLTCTVSGFSLNKYYMGWFRQAPGKGLEWIGVISRSGDTYYSSWAKGRFTISKASTTVDLRITSPTTEDTATYFCARDASSPGFHGDRLDLWGQGTLVTVSS
VL: B3 VL with R30S, F48Y, D68N, S93I, Q98L, Y99W
notes: Fc-silenced (L234A/L235A/P329G) IgG1, lambda; Alexa Fluor 647-labeled in single-step flow cytometry

Columns and labels:
SLAMF7 = target: T1, SLAMF7; assay: ELISA on coated SLAMF7-StrepTag, 150 ng IgG1; None 0.047
Procedure: (§1) Recombinant purified ECDs (50-150 ng) of each putative target protein were coated, incubated with 150 ng of the indicated primary antibody, and binding was detected using a peroxidase-conjugated anti-human Fab secondary antibody. Heatmap represents averages of technical triplicates. (8B) Target validation via siRNA knockdown. H929 cells were transfected with siRNA pools targeting the putative antibody targets ICAM1, CADM1, and PTPRG. Cells were then subjected to cognate IgG binding analysis via flow cytometry. (NT, non-targeting siRNA).
(§2) ELISA ELISA was conducted as described previously. Briefly, 50-150 ng of antigen was coated overnight in half-area 96-well plates at 4° C., blocked with 3% BSA at 37° C. for 1 h, and 150 ng of chimeric rabbit/human IgG1 was added, incubating for 2 h at 37° C. […] After incubating at 37° C. for 15 min-1 h (depending on intensity of controls), data were acquired using a SpectraMax M5 plate reader (Molecular Devices).

[1] = target: T2, CADM1-His (Acro Biosystems); assay: ELISA on coated CADM1-His
Procedure: as §1, §2

ICAM1-Fc (R&D Systems) = target: T4, ICAM1-Fc (R&D Systems) (human, UniProt P05362 28-480); assay: ELISA on coated ICAM1-Fc, 150 ng IgG1; None 0.060
T4 construct: Bought; also called ICAM-1/CD54; not shown: Fc of the bought fusion protein
T4 sequence (P05362 28-480): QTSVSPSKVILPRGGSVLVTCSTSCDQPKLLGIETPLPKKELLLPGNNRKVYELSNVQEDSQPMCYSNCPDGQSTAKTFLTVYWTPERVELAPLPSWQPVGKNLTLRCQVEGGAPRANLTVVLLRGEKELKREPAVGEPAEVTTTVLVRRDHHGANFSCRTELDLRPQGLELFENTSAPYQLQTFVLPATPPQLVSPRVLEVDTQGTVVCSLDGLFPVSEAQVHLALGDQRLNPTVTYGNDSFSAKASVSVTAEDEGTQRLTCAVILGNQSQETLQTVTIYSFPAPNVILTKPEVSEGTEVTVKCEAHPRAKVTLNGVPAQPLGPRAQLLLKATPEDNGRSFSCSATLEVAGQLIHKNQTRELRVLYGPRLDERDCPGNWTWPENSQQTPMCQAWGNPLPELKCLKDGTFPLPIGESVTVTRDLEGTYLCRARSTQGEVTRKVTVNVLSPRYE
Procedure: as §1, §2

[2] = target: T5, PTPRG, endogenous in H929 multiple myeloma cells (human, UniProt P23470 20-1445); assay: flow cytometry, H929 + vehicle; None 2.74
T5 construct: Native protein on H929 cells (flow cytometry, siRNA knockdown) and in H929 lysates (IP/MS); also called phosphatase receptor type γ
T5 sequence (P23470 20-1445 limits assumed): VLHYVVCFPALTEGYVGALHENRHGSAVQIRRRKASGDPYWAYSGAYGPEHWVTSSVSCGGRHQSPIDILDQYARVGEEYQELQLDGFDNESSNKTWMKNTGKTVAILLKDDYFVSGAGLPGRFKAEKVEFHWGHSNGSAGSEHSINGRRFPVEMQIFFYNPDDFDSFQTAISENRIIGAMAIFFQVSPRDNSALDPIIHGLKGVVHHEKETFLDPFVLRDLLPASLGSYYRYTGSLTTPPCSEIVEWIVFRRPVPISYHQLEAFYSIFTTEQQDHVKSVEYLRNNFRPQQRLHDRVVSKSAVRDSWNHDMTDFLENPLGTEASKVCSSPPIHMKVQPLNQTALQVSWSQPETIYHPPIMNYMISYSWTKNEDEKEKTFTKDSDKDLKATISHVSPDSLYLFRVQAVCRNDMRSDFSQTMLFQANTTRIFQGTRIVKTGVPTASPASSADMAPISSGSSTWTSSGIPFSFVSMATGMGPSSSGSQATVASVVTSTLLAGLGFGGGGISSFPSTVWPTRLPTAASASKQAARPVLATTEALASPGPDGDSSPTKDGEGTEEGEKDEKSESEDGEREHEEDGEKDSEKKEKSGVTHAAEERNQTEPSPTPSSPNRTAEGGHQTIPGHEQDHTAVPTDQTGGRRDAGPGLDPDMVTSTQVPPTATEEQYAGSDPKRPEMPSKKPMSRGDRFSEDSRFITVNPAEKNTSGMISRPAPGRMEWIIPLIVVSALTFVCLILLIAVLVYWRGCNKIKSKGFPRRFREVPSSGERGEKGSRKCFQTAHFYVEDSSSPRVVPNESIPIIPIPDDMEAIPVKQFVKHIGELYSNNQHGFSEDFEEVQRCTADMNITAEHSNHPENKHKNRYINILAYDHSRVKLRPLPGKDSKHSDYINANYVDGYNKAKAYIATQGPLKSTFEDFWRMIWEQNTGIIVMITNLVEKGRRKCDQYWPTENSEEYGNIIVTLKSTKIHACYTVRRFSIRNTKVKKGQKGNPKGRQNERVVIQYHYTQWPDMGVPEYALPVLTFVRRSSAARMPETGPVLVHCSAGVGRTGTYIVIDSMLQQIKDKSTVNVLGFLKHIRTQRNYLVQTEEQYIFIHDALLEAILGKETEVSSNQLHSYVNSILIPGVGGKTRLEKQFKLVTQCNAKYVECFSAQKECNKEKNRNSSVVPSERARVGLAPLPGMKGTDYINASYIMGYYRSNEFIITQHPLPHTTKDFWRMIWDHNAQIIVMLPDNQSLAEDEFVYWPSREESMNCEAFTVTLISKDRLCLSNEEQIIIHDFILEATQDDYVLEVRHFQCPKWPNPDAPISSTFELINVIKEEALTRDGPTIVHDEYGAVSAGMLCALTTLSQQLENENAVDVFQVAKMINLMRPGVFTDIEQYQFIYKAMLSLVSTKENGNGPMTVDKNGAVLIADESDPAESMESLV

[3] = target: T3, GARS, endogenous in H929 multiple …; assay: flow cytometry, H929 + CDH18 siRNA; None 443; surface target GARS putative
[4] = target: T3, GARS, endogenous in H929 multiple …; assay: flow cytometry, H929 + vehicle; None 513; surface target GARS putative
[5] = target: T3, GARS, endogenous in H929 multiple …; assay: flow cytometry, H929 + CADM1 siRNA; None 0.89; surface target GARS putative
[6] = target: T3, GARS, endogenous in H929 multiple …; assay: flow cytometry, H929 + CADM1 siRNA; None 449; surface target GARS putative

| Binder | ELISA Absorbance (405 nm-570 nm) (SLAMF7) | binding result [1] | ELISA Absorbance (405 nm-570 nm) (ICAM1-Fc (R&D Systems)) | Cells stained (%) [2] [%] | mAb binding (MFI) [3] | mAb binding (MFI) [4] | Cells stained (%) [5] [%] | mAb binding (MFI) [6] |
| --- | --- | --- | --- | --- | --- | --- | --- | --- |
| B1 | 0.052 | no binding (tested: 150 ng IgG1 per well) | 0.077 | 2.62 |  |  |  |  |
| B2 | 0.049 |  | 0.067 |  | 75300 | 16700 | 89.3 | 17000 |
| B3 | 0.054 | no binding (tested: 150 ng IgG1 per well) | 0.082 | 97.5 |  |  |  |  |
| B4 | 0.046 |  | 0.055 |  |  |  |  |  |
| B5 |  |  | 0.085 |  | 164000 | 44400 | 98.5 | 66800 |
| B6 | 0.053 |  | 0.065 | 99.4 |  |  |  |  |
| B7 | 0.051 |  | 0.081 |  |  |  |  |  |
| B8 | 0.053 |  | 0.071 | 99.3 |  |  |  |  |
| B9 | 0.054 | no binding (tested: 150 ng IgG1 per well) | 0.054 | 97.2 |  |  |  |  |
| B10 |  |  |  |  | 59600 | 25400 | 97 | 33400 |
| B11 | 0.047 | no binding (tested: 150 ng IgG1 per well) | 0.064 | 98.6 |  |  |  |  |
| B12 | 0.048 |  | 0.498 |  |  |  |  |  |
